Results published in patent US20030091568A1, “Inhibitors for the formation of soluble human CD23” (priority 2000, published 2003).

T1: ADAM9 (Homo sapiens, UniProt Q13443)
T1 construct: endogenous in cells
T1 sequence (Q13443 29-819): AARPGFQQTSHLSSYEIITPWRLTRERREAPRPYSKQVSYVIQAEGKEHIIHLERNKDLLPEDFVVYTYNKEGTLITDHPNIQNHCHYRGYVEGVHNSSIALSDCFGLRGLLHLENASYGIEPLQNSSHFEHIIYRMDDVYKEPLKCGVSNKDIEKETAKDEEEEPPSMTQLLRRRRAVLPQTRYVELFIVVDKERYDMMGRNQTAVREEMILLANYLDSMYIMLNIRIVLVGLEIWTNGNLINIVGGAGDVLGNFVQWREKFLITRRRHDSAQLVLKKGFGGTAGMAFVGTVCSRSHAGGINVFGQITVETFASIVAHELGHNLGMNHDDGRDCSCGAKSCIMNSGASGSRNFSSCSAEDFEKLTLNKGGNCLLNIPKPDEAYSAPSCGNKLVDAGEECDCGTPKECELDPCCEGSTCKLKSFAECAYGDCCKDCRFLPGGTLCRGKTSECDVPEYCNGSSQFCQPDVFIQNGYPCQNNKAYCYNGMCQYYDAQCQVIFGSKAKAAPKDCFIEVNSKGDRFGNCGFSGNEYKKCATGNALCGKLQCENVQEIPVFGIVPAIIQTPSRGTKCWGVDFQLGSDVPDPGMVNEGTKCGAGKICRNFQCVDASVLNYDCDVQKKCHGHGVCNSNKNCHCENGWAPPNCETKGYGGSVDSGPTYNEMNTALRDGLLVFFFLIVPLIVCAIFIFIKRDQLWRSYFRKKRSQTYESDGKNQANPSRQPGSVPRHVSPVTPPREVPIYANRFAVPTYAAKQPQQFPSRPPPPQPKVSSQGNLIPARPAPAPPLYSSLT


Target: T1, ADAM9
Assay: Shedding of CD23 from human B cell line P493-6 (c-myc "On", endogenous ADAM9)
Format: cell-based
Settings: TIMP concentrations known to inhibit MMPs, MT-MMPs, ADAM10 and ADAM17, FIG. 6a
Source text: TIMP-1, -2 and -3 are known to inhibit all known secreted matrix metalloproteinases (MMPs), membrane-type matrix metalloproteinases (MT-MMPs), as well as ADAM10 (inhibited by TIMP-1 and TIMP-3) and ADAM17 (TACE, inhibited by TIMP-3 only). In contrast, it has been shown that membrane bound ADAM9 is not inhibited by either TIMP-1, -2 or -3 (see Example 3, FIG. 3). Using the human B cell line P493-6 with a tetracycline regulatable c-myc gene allowed the upregulation of endogeneous ADAM9 via upregulation of c-myc. […] The decrease in cell surface bound CD23 correlated with the increase in the s-CD23 concentration in the culture medium assayed by ELISA (CD23 ELISA kit, Becton Dickinson, and CD23 ELISA kit, the Binding Site). […]
To inhibit matrix metalloproteinase activity, aliquots of the cells studied (transfected CHO AA8, […]) were washed three-times in serum free medium and further cultured either in the presence (1 μM TC) or absence of TC for 24-48 h, either in the presence of 2 μM batimastat (BB-94, British Biotechnology) or 20 nM-1 μM of either TIMP-1, -2, or TIMP-3. […] Surface CD23 in the presence of either of the inhibitors was quantitated by FACS analyses using a FITC-labelled monoclonal antibody against human CD23 and compared to cells cultured in the absence of the respective inhibitor. […]

inhibition of CD23 shedding (s-CD23 in culture medium, ELISA)	Molecule
could not be inhibited	TIMP-1: tissue inhibitor of metalloproteinases 1
could not be inhibited	TIMP-3: tissue inhibitor of metalloproteinases 3 (protein, UniProt P35625 24-211, looked up) Metalloproteinase inhibitor 3: CTCSPSHPQDAFCNSDIVIRAKVVGKKLVKEGPFGTLVYTIKQMKMYRGFTKMPHVQYIHTEASESLCGLKLEVNKYQYLLTGRVYDGKMYTGLCNFVERWDQLTLSQRKGLNYRYHLGCNCKIKSCYYLPCFVTSKNECLWTDMLSNFGYPGYQSKHYACIRQKGGYCSWYRGWAPPDKSIINATDP
